Results published in PMC9186069 (2022).

Target: T1, active C1r (human, UniProt P00736)
T1 chain 1: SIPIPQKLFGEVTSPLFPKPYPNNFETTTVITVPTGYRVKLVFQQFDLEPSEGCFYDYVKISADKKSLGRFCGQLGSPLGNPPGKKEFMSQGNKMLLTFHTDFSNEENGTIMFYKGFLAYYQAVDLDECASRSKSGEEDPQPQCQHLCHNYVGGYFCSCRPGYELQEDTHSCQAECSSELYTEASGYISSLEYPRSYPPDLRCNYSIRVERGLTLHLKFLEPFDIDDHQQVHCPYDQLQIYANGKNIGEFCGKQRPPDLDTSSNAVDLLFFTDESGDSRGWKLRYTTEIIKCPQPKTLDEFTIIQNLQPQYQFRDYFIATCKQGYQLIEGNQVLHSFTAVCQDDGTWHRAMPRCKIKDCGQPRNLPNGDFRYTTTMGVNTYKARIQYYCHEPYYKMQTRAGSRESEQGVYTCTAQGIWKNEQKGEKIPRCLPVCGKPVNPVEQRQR
T1 chain 2: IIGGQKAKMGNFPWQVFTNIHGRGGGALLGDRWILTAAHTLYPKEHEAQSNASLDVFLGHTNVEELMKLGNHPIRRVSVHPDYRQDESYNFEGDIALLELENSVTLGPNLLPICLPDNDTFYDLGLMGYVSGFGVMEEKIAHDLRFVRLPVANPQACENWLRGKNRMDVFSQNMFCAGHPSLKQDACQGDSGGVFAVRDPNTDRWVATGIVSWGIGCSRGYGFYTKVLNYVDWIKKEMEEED
Assay: SPR

B1: FbpB-Δ5C (domain or fragment)
chain: GSTGSETRLDNQYKFNLNKTTNSVEQALKIAQQIKDDLDTIEFHRIKLSNHYGIRAEEHEKQTAKEELSKFSKDKLEADLKKLLCEIEKSLNAATILTTHNEYHYGGNLQSDLSAKTTLDTLKTEVSSLISKIQNSNNKDHQAYPTSYYNDYQSYQALRNPYSKLTLVK
modifications: activated two-chain form, cleaved between 463 and 464 (cleavage limits from UniProt chain features), heavy and light chains disulfide-linked; plasma-purified glycoprotein; native C1r forms a Ca-dependent-complex homodimer, but the paper does not state stoichiometry
Kd: 2.1 nM
